Paper PMC5352738, “Characterization of three pyranose dehydrogenase isoforms from the litter-decomposing basidiomycete Leucoagaricus meleagris (syn. Agaricus meleagris)” (Applied Microbiology and Biotechnology, 2016)

B1: AmPDH3 (Macropsalliota meleagris) (protein)
chain: AITYQHPDDLPSDVDYDFIVAGGGTAGLVVASRLSENPDWNILVIEAGPSNKDAPETRVPGLAGSLPASRTDWNYTTIPQDALGGRSLNYSRAKVLGGCSSHNSMVYTRGSKDDWNHWADITGDQGLSWDSILPVMKKAEKFSKDFSNQSVDGHIDPSMHGHDGLLSVVSSYTNVSFNDLLLETTKELSDEFPFKLDLNDGNPHGLAWTQYTIDHRAERSSSATSYLESTRDNVHVLVNSRVTRIFSAGNGTDFRSVEFAVDANSPKKVLTAKKEVILSAGVIASPQVLMNSGIGGREELQAIGVDTLIDNPSVGKNLSDQAATLLMFDTTLPNTDYDVAAALTEWEDSRSGPMAYGARLNHLTWVRLLDDKLNGSDPSSGKNSPHIEFQFMQISHQLPPADAPNQVKLPDPDSIGAVLLLAVVNLYSVSHGSIILNDNDPFANPMIDLNMFGDQKDIAILREGVRSARRMFSSQAFKDVVNGTVYPPADVTSDEDLDAFLRTSAISYWHGVGTLSMSPQNASWGVVDPDFRVKGTSGLRVVDASVIPYAPAGHTQVPVYTFAEHASVLIAKSYA
notes: full-length pdh3 (600 aa precursor) in pPICZB-His6, His6-tag kept, secreted from Pichia pastoris X33; strongly N-glycosylated, ~65 kDa deglycosylated; standard yellow form with covalent FAD
B2: AmPDH1 (Macropsalliota meleagris) (protein)
chain: AITYQHPDDLPSGVDYDFIVAGGGTAGLVVASRLSENSNWKVLVIEAGPSNKDAFVTRVPGLASTLGAGSPIDWNYTTIPQDGLDGRSLDYPRAKILGGCSTHNGMVYTRGSKDDWNSWAGIIGDQGLGWDSILPAIKKAEKFTQDFTDQSVKGHIDPSVHGFDGKLSVSAAYSNISFNDLLFETTKELNAEFPFKLDMNDGKPIGLGWTQYTIDNHAERSSSATSYLESTGDNVHVLVNTLVTRVLSASGNGTDFRKVEFAVDANSPKKQLEAKKEVIVAGGVIASPQILMNSGIGERKVLQAVGIDTLIDNPSVGKNLSDQGATSVMFDTTLPSTDFDVDAALTEWTNSHTGPLARGARLNHLTFVRLPDDKLNGQDPSSGKNSPHIEFQFAQITPQVPTLGVPKQAPLPAANSYRLLLQLAVVNLYSISRGSISLSDNNPFTYPLIDLNMFKEDIDIAILREGIRSAGRMFSSKAFKNSVNKFVYPPADATSDEDLDAFLRSSTFSYVHGVGTLSMSPKGASWGVVNPDFKVKGTSGLRVVDASVIPHAPAAHTQLPVYAFAEYASALIAKSYN
notes: full-length pdh1 (602 aa precursor) in pPICZB-His6, His6-tag kept, secreted from Pichia pastoris X33; N-glycosylated monomer, ~65 kDa deglycosylated; covalent FAD
B3: AmPDH2 (Macropsalliota meleagris) (protein)
chain: AITYQHPDDLPSGVDYDFIVAGGGTAGLVVASRLSENSKWNVLVIEAGPSNKDTPETRIPGLADNLPGTRTDWNYTTIPQDALGGRSLNYSRAKVLGGCSTHNGMVYTRGPRDDWNYWAEITDNQALKWDNVLPIMKNTEKFSQDFLDQSMEGHIDPSVHGFDGMLSVVASYTNVSFNNLLLETTRELSDEFPFKLDLNDGKPHGLAWTQYTIDQGAERSSSATSYLESTGDNVHVLVNTHVTRIVSAGNETDFRSVEFAVDANSPKKVLTAKKELILSAGVIASPQILMNSGIGGREELQAIGVDTLIDNPSVGRNLSDQASTLLMFDTTLPNTDYDVAAALTEWDNSRSGPMAYAARLNHLTWVRLPDDKLSGSDPSSGHDSPHIEFQFRQISHQLPPADVPNQVQLPDPDSIGVVLQFSVVNLYSISLGSVTLNNNDPFADPIIDLNMFGDQKDIAILREGVRSARRMFSSQAFKNVVHETVYPPAGVTSDEDLDAFLRTSAVSYLHGVGTLSMSPHSASWGVVNPDFRVKGTTGLRVVDASVIPRAPAGHTQIPVYTFAEHASALIADSYN
notes: full-length pdh2 (600 aa precursor) in pPICZB-His6, His6-tag kept, secreted from Pichia pastoris X33; N-glycosylated, ~65 kDa deglycosylated; covalent FAD

What was measured:
purified protein [1] = substrate: O=C1C=CC(=O)C=C1; experiment: purified protein; assay type: biochemical, Macropsalliota meleagris; details: electron acceptor, 25 mM D-glucose, 100 mM Na acetate pH 4.0, 30 °C
purified protein [2] = substrate: CO[C@H]1O[C@H](CO)[C@@H](O)[C@H](O)[C@H]1O; experiment: purified protein; assay type: biochemical, Macropsalliota meleagris; details: electron donor, 0.2 mM ferrocenium, 50 mM Na phosphate pH 7.5, 30 °C

Row | Protein | Km (purified protein [1]) [µM] | kcat (purified protein [1]) [s⁻¹] | kcat/Km (purified protein [1]) [M⁻¹ s⁻¹] | Km (purified protein [2]) [µM] | kcat (purified protein [2]) [s⁻¹] | kcat/Km (purified protein [2]) [M⁻¹ s⁻¹]
1 | B1 | 1880 ± 140 | 3.57 ± 0.11 | 1890 | 950 ± 60 | 1 ± 0.01 | 1050
2 | B2 |  |  |  | 660 ± 50 | 41.5 ± 0.8 | 62900
3 | B3 | 32.5 ± 1.9 | 23.4 ± 0.5 | 780000 | 2000 ± 60 | 85 ± 0.6 | 42500
